Biological target: centromere-binding factor 1 (CBF1) (human) (UniProt Q06330)
Assay: cell-based or functional assay

Chain of centromere-binding factor 1 (CBF1) (human) (Q06330 whole entry): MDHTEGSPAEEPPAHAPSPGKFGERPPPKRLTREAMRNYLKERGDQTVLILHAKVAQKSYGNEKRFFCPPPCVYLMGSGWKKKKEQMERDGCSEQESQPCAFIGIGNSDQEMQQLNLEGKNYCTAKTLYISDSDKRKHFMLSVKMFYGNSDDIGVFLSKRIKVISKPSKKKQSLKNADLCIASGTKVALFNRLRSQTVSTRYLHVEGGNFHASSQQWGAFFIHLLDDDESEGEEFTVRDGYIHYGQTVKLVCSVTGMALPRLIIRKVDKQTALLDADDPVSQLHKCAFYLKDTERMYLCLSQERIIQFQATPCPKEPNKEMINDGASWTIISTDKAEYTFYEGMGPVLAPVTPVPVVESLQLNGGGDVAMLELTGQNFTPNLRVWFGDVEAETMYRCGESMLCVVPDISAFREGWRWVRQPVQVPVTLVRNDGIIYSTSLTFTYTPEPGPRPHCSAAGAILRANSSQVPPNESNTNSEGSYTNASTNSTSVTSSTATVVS

luciferase activity (CBF1 binding site reporter, wild-type/mutant, relative to beta-galactosidase): 5 fold
Substance: Notch1 intracellular domain (NICD) (from UniProt P46531 1754-2555) (receptor)

— patent publication US20080045445A1
